Among the data in patent US20120141441 are activity (% clones with EGFP loss) values, retold here.

For this series, the system named is Cre recombinase (bacteriophage P1 ?). The series can be described thus: cell_activity. Conditions: excision of reprogramming cassette in iPSC; typically 50% or more of clones; verified by Southern blot and PCR.

For the substance “loxP sites flanking reprogramming cassette (p4FLR)”, the activity (% clones with EGFP loss) was over 50.
